According to article doi:10.1101/790667 (bioRxiv, 2019):
* marks the point of attachment. Dansyl = CN(C)c1cccc2c(S(=O)(=O)*)cccc12

biological target: T1, human CASK PDZ domain (residues 487-572) (human, UniProt O14936 487-572); assay: differential scanning fluorimetry
T1 sequence (looked up): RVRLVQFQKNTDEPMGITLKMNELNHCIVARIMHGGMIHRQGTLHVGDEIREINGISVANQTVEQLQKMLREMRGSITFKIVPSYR

Binder	binding result
Dansyl-NKDKEYYV-OH (SMILES CC(C)[C@H](NC(=O)[C@H](Cc1ccc(O)cc1)NC(=O)[C@H](Cc1ccc(O)cc1)NC(=O)[C@H](CCC(=O)O)NC(=O)[C@H](CCCCN)NC(=O)[C@H](CC(=O)O)NC(=O)[C@H](CCCCN)NC(=O)[C@H](CC(N)=O)NS(=O)(=O)c1cccc2c(N(C)C)cccc12)C(=O)O) [Neurexin peptide (residues 1,470-1,477)]	binds
Dansyl-TKQEEFYA-OH (SMILES C[C@H](NC(=O)[C@H](Cc1ccc(O)cc1)NC(=O)[C@H](Cc1ccccc1)NC(=O)[C@H](CCC(=O)O)NC(=O)[C@H](CCC(=O)O)NC(=O)[C@H](CCC(N)=O)NC(=O)[C@H](CCCCN)NC(=O)[C@@H](NS(=O)(=O)c1cccc2c(N(C)C)cccc12)[C@@H](C)O)C(=O)O) [Syndecan1 peptide (residues 303-310)]	binds
Dansyl-ENQKEYFF-OH (SMILES CN(C)c1cccc2c(S(=O)(=O)N[C@@H](CCC(=O)O)C(=O)N[C@@H](CC(N)=O)C(=O)N[C@@H](CCC(N)=O)C(=O)N[C@@H](CCCCN)C(=O)N[C@@H](CCC(=O)O)C(=O)N[C@@H](Cc3ccc(O)cc3)C(=O)N[C@@H](Cc3ccccc3)C(=O)N[C@@H](Cc3ccccc3)C(=O)O)cccc12) [Caspr4 peptide (residues 1,301-1,308)]	binds
